In the supplement of paper PMC9112550, “Optimization of the antimicrobial peptide Bac7 by deep mutational scanning” (BMC Biology, 2022):

System: Escherichia coli TOP10
Assay: shrunken log2 fold change of peptide-encoding DNA abundance (4.5 h post-induction vs induction); higher = less antimicrobial activity (less host growth inhibition)
Conditions: time post-induction: 4.5 h; library: site-saturation at positions 5, 18, 19, 20
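Further: peptides expressed intracellularly from a pBAD plasmid library in pooled LB shake-flask culture, induced with 0.3% L-arabinose, DNA abundance read by NGS, three biological replicates, DESeq2 with apeglm shrinkage.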

Sequence	shrunken log2 fold change
RRIRDRPPRLPRPRPRPWRTPRP	-0.0162
RRIRMRPPRLPRPRPRPGNVPRP	-0.0105
RRIRGRPPRLPRPRPRPFIHPRP	0.0282
RRIRLRPPRLPRPRPRPPSNPRP	0.00215
RRIRQRPPRLPRPRPRPWTAPRP	-0.264
RRIRDRPPRLPRPRPRPVNTPRP	-0.327
RRIRQRPPRLPRPRPRPQLFPRP	0.0846
RRIRHRPPRLPRPRPRPKRRPRP	0.116
RRIRARPPRLPRPRPRPTTYPRP	-0.0877
RRIRDRPPRLPRPRPRPALSPRP	0.0869
RRIRYRPPRLPRPRPRPSPDPRP	-0.0956
RRIRLRPPRLPRPRPRPCFIPRP	0.554
RRIRVRPPRLPRPRPRPNDAPRP	-0.231
RRIRDRPPRLPRPRPRPPTMPRP	-0.061
RRIRGRPPRLPRPRPRPLDFPRP	0.78
RRIRLRPPRLPRPRPRPAITPRP	-0.252
RRIRTRPPRLPRPRPRPDTNPRP	-0.558
RRIRCRPPRLPRPRPRPYQCPRP	-0.133
RRIRVRPPRLPRPRPRPDDAPRP	0.134
RRIRLRPPRLPRPRPRPTRRPRP	0.298
RRIRKRPPRLPRPRPRPCIYPRP	-0.198
RRIRERPPRLPRPRPRPAGIPRP	-0.536

Sequence	shrunken log2 fold change
RRIRPRPPRLPRPRPRPTKGPRP	0.0911
RRIRWRPPRLPRPRPRPNLIPRP	0.0144
RRIRKRPPRLPRPRPRPMDGPRP	0.231
RRIRSRPPRLPRPRPRPSPPPRP	0.154
RRIRRRPPRLPRPRPRPTSWPRP	1.52
RRIRPRPPRLPRPRPRPLDKPRP	-0.0324
RRIRQRPPRLPRPRPRPTCHPRP	-0.552
RRIRVRPPRLPRPRPRPICLPRP	0.0369
RRIRNRPPRLPRPRPRPRLTPRP	0.252
RRIRARPPRLPRPRPRPKKLPRP	0.223
RRIRIRPPRLPRPRPRPEWRPRP	0.257
RRIRLRPPRLPRPRPRPDYWPRP	-0.596
RRIRFRPPRLPRPRPRPASHPRP	0.0492
RRIRRRPPRLPRPRPRPGACPRP	0.475
RRIRQRPPRLPRPRPRPEAKPRP	0.0428
RRIRTRPPRLPRPRPRPSRMPRP	-0.0328
RRIRDRPPRLPRPRPRPQRVPRP	0.143
RRIRQRPPRLPRPRPRPNWMPRP	0.0507
RRIRHRPPRLPRPRPRPAFIPRP	-0.037
RRIRMRPPRLPRPRPRPCPDPRP	-0.0886
RRIRSRPPRLPRPRPRPKQSPRP	0.328
RRIRSRPPRLPRPRPRPVNCPRP	-0.247

Sequence	shrunken log2 fold change
RRIRIRPPRLPRPRPRPLRYPRP	-0.409
RRIRQRPPRLPRPRPRPRPYPRP	-0.357
RRIRNRPPRLPRPRPRPTFWPRP	0.323
RRIRNRPPRLPRPRPRPESCPRP	0.073
RRIRTRPPRLPRPRPRPCIRPRP	-0.0289
RRIRKRPPRLPRPRPRPNSSPRP	-0.0248
RRIRWRPPRLPRPRPRPNQHPRP	-0.071
RRIRARPPRLPRPRPRPDKRPRP	0.109
RRIRERPPRLPRPRPRPTMVPRP	0.0432
RRIRQRPPRLPRPRPRPKFPPRP	0.118
RRIRYRPPRLPRPRPRPLACPRP	-0.319
RRIRWRPPRLPRPRPRPACIPRP	0.0736
RRIRRRPPRLPRPRPRPGPRPRP	0.917
RRIRRRPPRLPRPRPRPLLGPRP	0.504
RRIRQRPPRLPRPRPRPLEMPRP	0.155
RRIRKRPPRLPRPRPRPIDKPRP	0.0797
RRIRMRPPRLPRPRPRPDCPPRP	0.0739
RRIRYRPPRLPRPRPRPKEEPRP	-0.0656
RRIRSRPPRLPRPRPRPFEGPRP	0.123
RRIRCRPPRLPRPRPRPCKIPRP	-0.543
RRIRMRPPRLPRPRPRPLGQPRP	0.738
RRIRWRPPRLPRPRPRPCMDPRP	-0.18

Sequence	shrunken log2 fold change
RRIRKRPPRLPRPRPRPRAQPRP	0.7
RRIRLRPPRLPRPRPRPMLAPRP	0.369
RRIRFRPPRLPRPRPRPVLYPRP	-0.457
RRIRNRPPRLPRPRPRPSQTPRP	-0.00249
RRIRQRPPRLPRPRPRPMCKPRP	-0.0652
RRIRMRPPRLPRPRPRPSPLPRP	0.302
RRIRFRPPRLPRPRPRPYHDPRP	-0.722
RRIRHRPPRLPRPRPRPTPCPRP	0.00473
RRIRWRPPRLPRPRPRPGKDPRP	-0.222
RRIRDRPPRLPRPRPRPKIEPRP	-0.305
RRIRYRPPRLPRPRPRPDAFPRP	-1.27
RRIRVRPPRLPRPRPRPKQFPRP	0.109
RRIRSRPPRLPRPRPRPHEDPRP	0.132
RRIRMRPPRLPRPRPRPPSMPRP	0.761
RRIRSRPPRLPRPRPRPWNNPRP	-0.627
RRIRIRPPRLPRPRPRPLRSPRP	0.299
RRIRWRPPRLPRPRPRPHERPRP	0.156
RRIRDRPPRLPRPRPRPRSDPRP	0.514
RRIRVRPPRLPRPRPRPKMCPRP	-0.00991
RRIRDRPPRLPRPRPRPCMYPRP	0.126
RRIRVRPPRLPRPRPRPGSQPRP	-0.11
RRIRCRPPRLPRPRPRPVANPRP	0.0866

Sequence	shrunken log2 fold change
RRIRYRPPRLPRPRPRPFNGPRP	-0.0276
RRIRTRPPRLPRPRPRPFHRPRP	-0.469
RRIRCRPPRLPRPRPRPSPCPRP	-0.0417
RRIRERPPRLPRPRPRPTMSPRP	-0.217
RRIRLRPPRLPRPRPRPLHPPRP	-0.0561
RRIRYRPPRLPRPRPRPVIRPRP	-0.139
RRIRKRPPRLPRPRPRPVLNPRP	0.0304
RRIRWRPPRLPRPRPRPTTVPRP	0.11
RRIRFRPPRLPRPRPRPRDSPRP	-0.051
RRIRMRPPRLPRPRPRPFCCPRP	0.534
RRIRKRPPRLPRPRPRPKFPPRP	0.134
RRIRPRPPRLPRPRPRPAKDPRP	-0.111
RRIRVRPPRLPRPRPRPLDIPRP	-0.0121
RRIRRRPPRLPRPRPRPAPLPRP	0.857
RRIRSRPPRLPRPRPRPRQWPRP	0.69
RRIRWRPPRLPRPRPRPLRFPRP	0.399
RRIRNRPPRLPRPRPRPVCWPRP	0.469
RRIRERPPRLPRPRPRPCYVPRP	-0.716
RRIRIRPPRLPRPRPRPKIKPRP	-0.696
RRIRLRPPRLPRPRPRPGKYPRP	-0.282
RRIRIRPPRLPRPRPRPIWDPRP	-0.282
